Molecular target: pooled human IgG (human IgG1,2,3 and 4)

| Protein | Enzyme Activity Endpoint Assay: Fab′2 [ng/µL] | Enzyme Activity Endpoint Assay: Fc [ng/µL] | Enzyme Activity Endpoint Assay: IgG [ng/µL] | Enzyme Activity Endpoint Assay: scIgG [ng/µL] |
| --- | --- | --- | --- | --- |
| PRT-88 (protein) MANQEIRYSEVTPYHVTSVWTKGVTPPAKFTQGEDVFHAPYVANQGWYDITKTFNGKDDLLCGAATAGNMLHWWFDQNKEKIEAYLKKHPEKQKIMFGDQELLDVRKVINTKGDQTNSELFNYFRDKAFPGLSARRLGVMPDLVLDMFINGYYLNVYKTQTTDVNRTYQEKDRRGGIFDAVFTRGDQSKLLTSRHDFKEKNLKEISDLIKKELTEGKALGLSHTYANVRINHVINLWGADFDSNGNLKAIYVTDSDSNASIGMKKYFVGVNSAGKVAISAKEIKEDNIGAQVLGLFTLSTGQDIWNQTN | 48 | 110 | 25 | 0 |
| PRT-94 (protein) MANQEIRYSEETPYHVTSVWTKGVTPPAKFTQGEDVFHAPYVANQGWYDITKTFNGKDDLLCGAATAGNMLHWWFDQNKEKIEAYLKKHPDKQKIMFGDQELLDVRKVINTKGDQTNSELFNYFRDKAFPGLSARRIGVMPDLVLDMFINGYYLNVYKTQTTDVNRTYQEKDRRGGIFDAVFTRGDQSKLLTSRHDFKEKTLKEISDLIKKELTEGKALGLSHTYANVRINHVINLWGADFDSNGNLKAIYVTDSDSNASIGMKKYFVGVNSAGKVAISAKEIKEDNIGAQVLGLFTLSTGQDSWNQTN | 547 | 120 | 0 | 0 |
| PRT-96 (protein) MANQEIRYSEVTPYTVTSVWTKGVTPPADFTQGEDVFHAPYVANQGWYDITKTFNGKDDLLCGAATAGNMLHWWFDQNKEKIEAYLKKHPDKQKIMFGDQELLDVRKAINTKGDQTNSELFNYFRDKAFPGLSARRIGVMPDLVLDMFINGYYLNVYKTQTTDVNRTYQEKDRRGGIFDAVFTRGDQSKLLTSRHDFKEKNLKEISDLIKKELTEGKALGLSHTYANVRINHVINLWGADFDSEGNLKAIYVTDSDSNASIGMKKYFVGVNSAGKVAISAKEIKEDNIGAQVLGLFTLSTGQDSWNQTN | 482 | 156 | 0 | 0 |
| PRT-91 (protein) MANQEIRYSEETPYHITSVWTKGVTPPAKFTQGEDVFHAPYVANQGWYDITKTFNGKDDLLCGAATAGNMLHWWFDQNKEKIEAYLKKHPEKQKIMFGDQELLDVRKVINTKDDQTNSELFNYFRDKAFPNLSARRLGVMPDLVLDMFINGYYLNVGKTQTTDVNRTYQEKDKRGGIFDAVFTRGDQSKLLTSRHDFKEKNLKEISDLIKQELTEGKALGLSHTYANVRINHVINLWGADFDSNGNLKAIYVTDSDSNASIGMKKYFVGVNSAGKVAISAKEIEEDNIGAQVLGLFTLSTGQDIWNQTN | 40 | 102 | 16 | 9 |
| PRT-90 (protein) MANQEIRYSEETPYHVTSVWTKGVTPPAKFTQGEDVFHAPYVANQGWYDITKTFNGKDDLLCGAATAGNMLHWWFDQNKEKIEAYLKKHPEKQKIMFGDQELLDVRKVINTKDDQTNSELFNYFRDKAFPGLSARRLGVMPDLVLDMFINGYYLNVYKTQTTDVNRTYQEKDRRGGIFDAVFTRGDQSKLLTSRHDFKEKTLKEISDLIKKELTEGKALGLSHTYANVRINHVINLWGADFDSNGNLKAIYVTDSDSNASIGMKKYFVGVNSAGKVAISAKEIKEDNIGAQVLGLFTLSTGQDIWNQTN | 44 | 106 | 21 | 0 |
| PRT-101 (protein) MANQEIRYSEVTPYHVTSVWTKGVTPPAKFTQGEDVFHAPYVANQGWYDITKTFNGKDDLLCGAATAGNMLHWWFDQNKEKIEAYLKKHPDKQKIMFGDQELLDVRKVINTKGDQTNSELFNYFRDKAFPGLSARRIGVMPDLVLDMFINGYYLNVYKTQTTDVNRTYQEKDKRGGIFDAVFTRGDQSKLLTSRHDFKEKNLKEISDLIKKELTEGKALGLSHTYANVRINHVINLWGADFDSNGNLKAIYVTDSDSNASIGMKKYFVGVNSAGKVAISAKEIKEDNIGAQVLGLFTLSTGQDSWNQTN | 655 | 204 | 0 | 0 |
| PRT-98 (protein) MANQEIRYSEVTPYHVTSVWTKGVTPPAKFTQGEDVFHAPYVANQGWYDITKTFNGKDDLLCGAATAGNMLHWWFDQNKEKIEAYLKKHPDKQKIMFGDQELLDVRKVINTKGDQTNSELFNYFRDKAFPGLSARRLGVMPDLVLDMFINGYYLNVYKTQTTDVNRTYQEKDRRGGIFDAVFTRGDQSKLLTSRHDFKEKNLKEISDLIKKELTEGKALGLSHTYANVRINHVINLWGADFDSNGNLKAIYVTDSDSNASIGMKKYFVGVNSAGKVAISAKEIKEDNIGAQVLGLFTLSTGQDSWNQTN | 592 | 180 | 0 | 0 |
| PRT-95 (protein) MANQEIRYSEVTPYHITSVWTKGVTPPAKFTQGEDVFHAPYVANQGWYDITKTFNGKDDLLCGAATAGNMLHWWFDQNKEKIEAYLKKHPDKQKIMFGDQELLDVRKVINTKGDQTNSELFNYFRDKAFPNLSARRIGVMPDLVLDMFINGYYLNVGKTQTTDVNRTYQEKDKRGGIFDAVFTRGDQSKLLTSRHDFKEKNLKEISDLIKQELTEGKALGLSHTYANVRINHVINLWGADFDSNGNLKAIYVTDSDSNASIGMKKYFVGVNSAGKVAISAKEIEEDNIGAQVLGLFTLSTGQDSWNQTN | 242 | 118 | 102 | 0 |
| PRT-92 (protein) MANQEIRYSEVTPYTITSVWTKGVTPPADFTQGEDVFHAPYVANQGWYDITKTFNGKDDLLCGAATAGNMLHWWFDQNKEKIEAYLKKHPEKQKIMFGDQELLDVRKAINTKDDQTNSELFNYFRDKAFPNLSARRLGVMPDLVLDMFINGYYLNVYKTQTTDVNRTYQEKDKRGGIFDAVFTRGDQSKLLTSRHDFKEKNLKEISDLIKQELTEGKALGLSHTYANVRINHVINLWGADFDSEGNLKAIYVTDSDSNASIGMKKYFVGVNSAGKVAISAKEIKEDNIGAQVLGLFTLSTGQDIWNQTN | 40 | 104 | 8 | 6 |
| PRT-99 (protein) MANQEIRYSEVTPYHVTSVWTKGVTPPAKFTQGEDVFHAPYVANQGWYDITKTFNGKDDLLCGAATAGNMLHWWFDQNKEKIEAYLKKHPDKQKIMFGDQELLDVRKVINTKGDQTNSELFNYFRDKAFPGLSARRIGVMPDLVLDMFINGYYLNVYKTQTTDVNRTYQEKDRRGGIFDAVFTRGDQSKLLTSRHDFKEKNLKEISDLIKKELTEGKALGLSHTYANVRINHVINLWGADFDSNGNLKAIYVTDSDSNASIGMKKYFVGVNSAGKVAISAKEIKEDNIGAQVLGLFTLSTGQDIWNQTN | 489 | 152 | 0 | 0 |
| PRT-89 (protein) MANQEIRYSEVTPYHVTSVWTKGVTPPAKFTQGEDVFHAPYVANQGWYDITKTFNGKDDLLCGAATAGNMLHWWFDQNKEKIEAYLKKHPEKQKIMFGDQELLDVRKVINTKDDQTNSELFNYFRDKAFPGLSARRLGVMPDLVLDMFINGYYLNVYKTQTTDVNRTYQEKDRRGGIFDAVFTRGDQSKLLTSRHDFKEKNLKEISDLIKKELTEGKALGLSHTYANVRINHVINLWGADFDSNGNLKAIYVTDSDSNASIGMKKYFVGVNSAGKVAISAKEIKEDNIGAQVLGLFTLSTGQDIWNQTN | 45 | 89 | 34 | 0 |
| PRT-100 (protein) MANQEIRYSEVTPYHVTSVWTKGVTPPAKFTQGEDVFHAPYVANQGWYDITKTFNGKDDLLCGAATAGNMLHWWFDQNKEKIEAYLKKHPDKQKIMFGDQELLDVRKVINTKGDQTNSELFNYFRDKAFPNLSARRIGVMPDLVLDMFINGYYLNVYKTQTTDVNRTYQEKDRRGGIFDAVFTRGDQSKLLTSRHDFKEKNLKEISDLIKKELTEGKALGLSHTYANVRINHVINLWGADFDSNGNLKAIYVTDSDSNASIGMKKYFVGVNSAGKVAISAKEIKEDNIGAQVLGLFTLSTGQDSWNQTN | 513 | 178 | 0 | 0 |
| PRT-93 (protein) MANQEIRYSEVTPYHVTSVWTKGVTPPAKFTQGEDVFHAPYVANQGWYDITKTFNGKDDLLCGAATAGNMLHWWFDQNKEKIEAYLKKHPDKQKIMFGDQELLDVRKVINTKDDQTNSELFNYFRDKAFPGLSARRIGVMPDLVLDMFINGYYLNVYKTQTTDVNRTYQEKDRRGGIFDAVFTRGDQSKLLTSRHDFKEKNLKEISDLIKKELTEGKALGLSHTYANVRINHVINLWGADFDSNGNLKAIYVTDSDSNASIGMKKYFVGVNSAGKVAISAKEIKEDNIGAQVLGLFTLSTGQDSWNQTN | 38 | 91 | 11 | 0 |
| PRT-97 (protein) MANQEIRYSEVTPYHVTSVWTKGVTPPAKFTQGEDVFHAPYVANQGWYDITKTFNGKDDLLCGAATAGNMLHWWFDQNKEKIEAYLKKHPEKQKIMFGDQELLDVRKVINTKGDQTNSELFNYFRDKAFPGLSARRIGVMPDLVLDMFINGYYLNVYKTQTTDVNRTYQEKDRRGGIFDAVFTRGDQSKLLTSRHDFKEKNLKEISDLIKKELTEGKALGLSHTYANVRINHVINLWGADFDSNGNLKAIYVTDSDSNASIGMKKYFVGVNSAGKVAISAKEIKEDNIGAQVLGLFTLSTGQDSWNQTN | 524 | 185 | 0 | 0 |

Source: patent publication US20250027068
